Measurements published in the supplement of paper PMC9732359.
± gives the uncertainty stated by the source.

Test: protein stability index of a GFP-peptide fusion (yeast GPS) (PSI 1-4); higher = more stable; sorted into four equal gates, so the index is relative within each strain
In short: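 Mid-log yeast cultures in leucine-free medium, carrying a pooled plasmid library, were sorted into four equal gates by their GFP/Cherry fluorescence ratio. Each plasmid expressed Cherry along with GFP fused upstream of a tiled 17-residue yeast protein peptide. Plasmids recovered from each gate were PCR-amplified and Illumina-sequenced, with reads assigned to strains by barcodes. The protein stability index was obtained by summing each gate's read frequency weighted by its gate number.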

Row | Sequence | protein stability index (doa10∆) | protein stability index (pdr5∆) | protein stability index (san1∆) | protein stability index (ubr1∆)
1 | LTNQLYKNHELLKLERK [SNF2] | 3.15 ± 0.063 | 3.12 ± 0.059 | 3.11 ± 0.039 | 3.2 ± 0.053
2 | ETEFPPFREFLQVLIDQ [ECM29] | 3.46 ± 0.19 | 3.45 ± 0.16 | 3.2 ± 0.095 | 3.27 ± 0.12
3 | LMLKKLKNSIMSFIFPS [YML031W/NDC1] | 2.21 ± 0.058 | 2.3 ± 0.066 | 2.28 ± 0.073 | 2.37 ± 0.062
4 | TEAAFTKLDQVWGSETV [RPL4A] | 1.84 ± 0.18 | 1.87 ± 0.11 | 3.07 ± 0.067 | 2.15 ± 0.14
5 | REYLEEYKSLFVVGVDN [RPP0] | 3.11 ± 0.075 | 2.55 ± 0.087 | 2.91 ± 0.1 | 3.24 ± 0.071
6 | GRVKYTKRQKHFAWLPT [POP1] | 2.27 ± 0.051 | 2.48 ± 0.081 | 2.3 ± 0.084 | 2.55 ± 0.039
7 | SDEEESVLDEQEQYQTN [SNU114] | 3.11 ± 0.14 | 3.25 ± 0.079 | 3.25 ± 0.11 | 3.31 ± 0.069
8 | ESPNYCNALIHIKFSAG [SRB4] | 1.66 ± 0.042 | 1.83 ± 0.039 | 1.93 ± 0.069 | 2.04 ± 0.034
9 | SASFSLKNGDKPHMLKF [RPL6A] | 2.81 ± 0.083 | 1.84 ± 0.055 | 2.89 ± 0.06 | 3.13 ± 0.033
10 | DEIDAALDFRNVSIVAN [SMC4] | 1.75 ± 0.056 | 1.91 ± 0.05 | 2.03 ± 0.076 | 1.54 ± 0.051
11 | EALLRSLLDAEEERRKK [SNF2] | 2.87 ± 0.15 | 2.62 ± 0.094 | 2.27 ± 0.17 | –
12 | FDQAGKKVSRRNARATR [RPL13A] | 2.51 ± 0.073 | 3.36 ± 0.057 | 1.92 ± 0.12 | 2.34 ± 0.067
13 | NSTSKNTLLQQQNYSKV [SWI1] | 2.33 ± 0.067 | 2.86 ± 0.12 | 2.08 ± 0.078 | 2.68 ± 0.06
14 | FTNGVLAVTNLLIISCI [YML031W/NDC1] | 1.89 ± 0.18 | 1.85 ± 0.17 | 1.79 ± 0.14 | –
15 | YIFFGPIYYQKLKHMVL [RET1] | 1.2 ± 0.062 | 1.38 ± 0.1 | 1.28 ± 0.12 | 1.39 ± 0.062
16 | DLKSKADKLADMANEII [RRP6] | 3.38 ± 0.15 | 3.17 ± 0.12 | 3.19 ± 0.082 | 3.16 ± 0.085
17 | IVFDICQILDGELDVLQ [PRP8] | 2.7 ± 0.11 | 2.63 ± 0.11 | 2.39 ± 0.1 | 3.07 ± 0.11
18 | KERLVRDKKEKKQAQKQ [SMB1] | 3.25 ± 0.097 | 3.21 ± 0.086 | 2.82 ± 0.14 | 3.3 ± 0.086
19 | EQEDIIEKTESVDKKVD [SWI3] | 3.04 ± 0.07 | 3.02 ± 0.081 | 3.14 ± 0.041 | 2.99 ± 0.094
20 | ALDIVCSDFVKILNLEK [NUT1] | 2.7 ± 0.069 | 2.7 ± 0.07 | 2.35 ± 0.11 | 2.29 ± 0.099
21 | KLQSQSLHTKNVFGTLQ [YLR018C/POM34] | 2.87 ± 0.12 | 2.82 ± 0.12 | 2.29 ± 0.26 | 2.94 ± 0.11
22 | GKKASLNVGNVLPLGSV [RPL2A] | 2.4 ± 0.051 | 2.29 ± 0.057 | 2.51 ± 0.078 | 2.56 ± 0.042
23 | DENELKKSEEKLREKVN [MTW1] | 2.97 ± 0.27 | – | – | –
24 | IKTRTVHELSKRVHTLL [ISW2] | 1.37 ± 0.091 | 1.49 ± 0.072 | 2.18 ± 0.17 | 1.49 ± 0.049
25 | DPIWQHQSLGPDGLGEV [RET1] | 2.96 ± 0.11 | 3.13 ± 0.11 | 3.04 ± 0.11 | 3.35 ± 0.15

Row | Sequence | protein stability index (doa10∆) | protein stability index (pdr5∆) | protein stability index (san1∆) | protein stability index (ubr1∆)
26 | GGVDVGPSVESYELRNT [SNF5] | 2.9 ± 0.1 | 3.15 ± 0.11 | 3.04 ± 0.075 | 3.28 ± 0.079
27 | KKEEELGVKSRLLEKSE [SNF2] | – | 3.01 ± 0.14 | 3.06 ± 0.2 | 3.04 ± 0.29
28 | TKSKNKTLIGLQGIVIW [POP4] | 2.93 ± 0.05 | 2.76 ± 0.051 | 2.76 ± 0.044 | 2.73 ± 0.034
29 | LTVFYAIKKFKTEKDGV [SSN3] | 2.17 ± 0.12 | 1.74 ± 0.057 | 2.42 ± 0.061 | 1.97 ± 0.085
30 | NKTAHLSIPGKSTPEGT [SNU114] | 2.94 ± 0.065 | 3.04 ± 0.061 | 2.79 ± 0.048 | 3.01 ± 0.038
31 | ESVIEQIVKYARKGLTP [RPS13] | 3.13 ± 0.058 | 2.94 ± 0.073 | 2.76 ± 0.052 | 2.81 ± 0.044
32 | LCVLWDDLQSSVIPEVD [YCG1] | 1.88 ± 0.095 | 1.87 ± 0.068 | 2.01 ± 0.087 | 2.34 ± 0.075
33 | GRRLNIRQYALATAHIY [SSN8] | 1.53 ± 0.055 | 1.32 ± 0.057 | 1.17 ± 0.17 | 1.09 ± 0.067
34 | SFATATCVTCHWNLPGE [SIR2] | 1.64 ± 0.068 | 1.97 ± 0.11 | 1.9 ± 0.084 | 1.92 ± 0.064
35 | KYLLTQRVFKPVDITMM [PRP8] | 2.98 ± 0.081 | 2.99 ± 0.11 | 3.02 ± 0.079 | 2.31 ± 0.1
36 | VTPTKTEVIIRATRTQD [RPS3] | 1.86 ± 0.049 | 1.91 ± 0.044 | 2.57 ± 0.069 | 1.91 ± 0.033
37 | EGSWDRGIPRISTLFQR [PRP8] | 2.79 ± 0.19 | – | 3.24 ± 0.14 | 3.06 ± 0.11
38 | PSEIPDAHKAEQEDIIE [SWI3] | – | 3.29 ± 0.14 | 3.46 ± 0.12 | 3.05 ± 0.17
39 | KREASRGFFDILSLATE [MCD1] | 3.08 ± 0.083 | 3.21 ± 0.06 | 2.91 ± 0.063 | 3.11 ± 0.05
40 | SMFGSDQKTGRAKSSSH [RPN4] | 3.02 ± 0.087 | 3.25 ± 0.11 | 3.14 ± 0.071 | 2.9 ± 0.076
41 | QSTPQPDDMVEINSVGN [ITC1] | 3.2 ± 0.11 | 3.42 ± 0.043 | 3.04 ± 0.13 | 3.18 ± 0.075
42 | ICKNCSAILLSETDKRQ [RPO31] | 2.59 ± 0.086 | 2.85 ± 0.058 | 2.81 ± 0.068 | 2.96 ± 0.041
43 | VGKYDKAIELLEKALQG [SRP72] | – | 1.66 ± 0.17 | – | 1.18 ± 0.22
44 | IELLCGLGKSAVNWQDK [NAS6] | – | – | 3.75 ± 0.086 | –
45 | TTARNDLGVVFARAANG [CSL4] | 1.87 ± 0.056 | 2.02 ± 0.12 | 1.87 ± 0.14 | 2.39 ± 0.048
46 | LEEHKNHLDELQKKFVT [SMC1] | 2.88 ± 0.08 | 2.83 ± 0.11 | 2.88 ± 0.059 | 2.91 ± 0.052
47 | TAAQVANVELTPSNIRS [RPC34] | 2.79 ± 0.1 | 2.82 ± 0.071 | 2.8 ± 0.085 | 2.87 ± 0.093
48 | GGNFKDLSTLVHSSSPS [GAL11] | 1.48 ± 0.056 | 1.46 ± 0.045 | 1.59 ± 0.089 | 1.38 ± 0.059
49 | VKEEKEDMETQASDPSK [RPC53] | 3.27 ± 0.14 | 3.41 ± 0.2 | 3.2 ± 0.17 | 3.31 ± 0.15
50 | DSYLDADKELSFEINVK [BRR2] | 2.83 ± 0.051 | 3.03 ± 0.041 | 3.08 ± 0.032 | 2.88 ± 0.034

Row | Sequence | protein stability index (doa10∆) | protein stability index (pdr5∆) | protein stability index (san1∆) | protein stability index (ubr1∆)
51 | TNFEILNEMLNTRKNMS [DIS3] | 2.97 ± 0.059 | 3.07 ± 0.091 | 3.06 ± 0.054 | 3.09 ± 0.041
52 | SPDQMRNLQMGLRNQNM [GRR1] | 3.23 ± 0.12 | 3.52 ± 0.16 | 3.22 ± 0.088 | 2.71 ± 0.082
53 | NENDSQAIITERLVEFS [YIL149C/MLP2] | 3.2 ± 0.095 | 3.15 ± 0.085 | 2.83 ± 0.087 | 2.87 ± 0.051
54 | PSLKAHFTEIKLNKVDK [SIR3] | 2.31 ± 0.061 | 2.13 ± 0.065 | 2.35 ± 0.065 | 2.08 ± 0.082
55 | IQEFLVVIEKRRKKILN [GRR1] | 2.92 ± 0.091 | 2.74 ± 0.097 | 2.88 ± 0.083 | 2.94 ± 0.088
56 | SNDLCSQIFDQLKDMQT [SRB8] | 2.72 ± 0.047 | 2.67 ± 0.042 | 2.47 ± 0.049 | 2.71 ± 0.034
57 | LCRQGHNMLNLLIHRKG [PRP8] | 2.33 ± 0.061 | 2.55 ± 0.068 | 2.31 ± 0.091 | 2.23 ± 0.041
58 | LLEFFELVFSKGVYLIL [YML103C/NUP188] | 2.13 ± 0.087 | 2.4 ± 0.093 | 1.97 ± 0.093 | 2.26 ± 0.076
59 | ARYYRTVAVLPPNWKYE [RPS13] | 1.89 ± 0.044 | 2.1 ± 0.039 | 2.18 ± 0.051 | 1.92 ± 0.029
60 | NSGKQQYYRGLPLYEKN [SWP82] | 2.56 ± 0.089 | 2.5 ± 0.06 | 2.9 ± 0.075 | 3.01 ± 0.043
61 | PIRINSTEEIEYIELEY [YMR129W/POM152] | 2.45 ± 0.095 | 3.04 ± 0.09 | 2.68 ± 0.091 | 2.82 ± 0.039
62 | FPVSLSQPSKKSFANHT [SIR4] | 2.82 ± 0.051 | 2.87 ± 0.046 | 3.01 ± 0.054 | 3 ± 0.039
63 | KKEANLFPEQQNKEIKA [RPL6A] | 3.38 ± 0.12 | 3.43 ± 0.088 | 3.21 ± 0.076 | 3.3 ± 0.093
64 | HQNVIIGSNGSGKSNFF [SMC3] | 3.07 ± 0.086 | 2.7 ± 0.091 | 2.84 ± 0.069 | 2.85 ± 0.057
65 | AQRLQISDYQQLESIYF [SWI1] | 2.38 ± 0.05 | 1.95 ± 0.027 | 2.58 ± 0.043 | 2.76 ± 0.046
66 | PPGTGKTLCARAVANRT [RPT1] | 1.26 ± 0.1 | 1.25 ± 0.19 | 1.37 ± 0.18 | 1.27 ± 0.12
67 | LSCQYDNTVRTSANGIV [RPO31] | 1.32 ± 0.19 | 1.26 ± 0.14 | – | –
68 | SRAQILQIHSRKMTTDD [RPT5] | 2.72 ± 0.082 | 2.43 ± 0.055 | 2.92 ± 0.068 | 3.08 ± 0.046
69 | DEPDEQGNPKKRPGKLS [CYT1] | – | 3.45 ± 0.15 | 3.24 ± 0.16 | 3.44 ± 0.089
70 | IQDSNGDVKNMEDVKIQ [SWI3] | 2.86 ± 0.071 | 2.8 ± 0.091 | 2.41 ± 0.1 | 2.94 ± 0.061
71 | FVSNMGFDIQKSCEPVS [SIR4] | 2.06 ± 0.066 | 2.05 ± 0.12 | 1.68 ± 0.24 | 2.12 ± 0.075
72 | FAKEHNATVNLAMEAIL [YJR042W/NUP85] | 2.93 ± 0.094 | 2.66 ± 0.1 | 2.71 ± 0.098 | 2.63 ± 0.092
73 | NDAMAGGFTAYGGADYG [RPO21] | 1.78 ± 0.083 | 1.91 ± 0.066 | 1.92 ± 0.1 | 1.86 ± 0.074
74 | IKKMLHLVWMKGTNDEG [YCS4] | 3.17 ± 0.2 | 3.51 ± 0.11 | 3.19 ± 0.16 | 3.33 ± 0.18
75 | VPTLEAKRDYIISRLNA [FAS1] | 3.13 ± 0.087 | 3.35 ± 0.16 | 3.05 ± 0.076 | 3.25 ± 0.071
